# Reference: patent US20210087281A1 (AGOMAB THERAPEUTICS, published 2021)
# Substitutions are numbered along the chain they refer to.
# B1: 74C8 chimeric llama-human IgG1 mAb (antibody, V domains shown)
# VH: EVQLVESGGGLVQPGGSLRLSCAASGFTFRNYHMSWVRQVPGKGFEWISDINSAGGSTYYADSVKGRFTISRDNAKNTLYLEMNSLKPEDTALYYCARVNVWGVNYWGKGTLVSVSS
# VL: QTVVTQEPSLSVSPGGTVTLTCGLSSGSVTTSNYPGWFQQTPGQAPRTLIYNTNSRHSGVPSRFSGSISGNKAALTITGAQPEDEADYYCSLYPGSYTNVFGGGTHLTVL
# notes: llama VH on human IgG1 CH1-CH2-CH3, llama VL on human lambda CL
# B2: 76H10 Fab (Fab, V domains shown)
# VH: QLQLVESGGGLVQPGGSLRVSCTASGFTFNTYYMTWVRQAPGKGLEWVSDINSGGGTYYADSVKGRFTISRDNAKNTLYLQMNSLKPEDTALYYCVRVRIWPVGYDYWGQGTQVTVSS
# VL: B1 VL with T2A, S55N, P94T, N99T
# notes: llama Fab (VH-CH1 and lambda VL-CL) with MYC flag, crude periplasmic extract
# What was measured:
# [1] = molecular target: T1, native mouse MET on living cells (mouse, UniProt P16056 25-1379); test: cell-based or functional assay
# [2] = molecular target: T2, native human MET on living cells (human, UniProt P08581 25-1390); test: cell-based or functional assay
# T2 sequence (P08581 25-1390): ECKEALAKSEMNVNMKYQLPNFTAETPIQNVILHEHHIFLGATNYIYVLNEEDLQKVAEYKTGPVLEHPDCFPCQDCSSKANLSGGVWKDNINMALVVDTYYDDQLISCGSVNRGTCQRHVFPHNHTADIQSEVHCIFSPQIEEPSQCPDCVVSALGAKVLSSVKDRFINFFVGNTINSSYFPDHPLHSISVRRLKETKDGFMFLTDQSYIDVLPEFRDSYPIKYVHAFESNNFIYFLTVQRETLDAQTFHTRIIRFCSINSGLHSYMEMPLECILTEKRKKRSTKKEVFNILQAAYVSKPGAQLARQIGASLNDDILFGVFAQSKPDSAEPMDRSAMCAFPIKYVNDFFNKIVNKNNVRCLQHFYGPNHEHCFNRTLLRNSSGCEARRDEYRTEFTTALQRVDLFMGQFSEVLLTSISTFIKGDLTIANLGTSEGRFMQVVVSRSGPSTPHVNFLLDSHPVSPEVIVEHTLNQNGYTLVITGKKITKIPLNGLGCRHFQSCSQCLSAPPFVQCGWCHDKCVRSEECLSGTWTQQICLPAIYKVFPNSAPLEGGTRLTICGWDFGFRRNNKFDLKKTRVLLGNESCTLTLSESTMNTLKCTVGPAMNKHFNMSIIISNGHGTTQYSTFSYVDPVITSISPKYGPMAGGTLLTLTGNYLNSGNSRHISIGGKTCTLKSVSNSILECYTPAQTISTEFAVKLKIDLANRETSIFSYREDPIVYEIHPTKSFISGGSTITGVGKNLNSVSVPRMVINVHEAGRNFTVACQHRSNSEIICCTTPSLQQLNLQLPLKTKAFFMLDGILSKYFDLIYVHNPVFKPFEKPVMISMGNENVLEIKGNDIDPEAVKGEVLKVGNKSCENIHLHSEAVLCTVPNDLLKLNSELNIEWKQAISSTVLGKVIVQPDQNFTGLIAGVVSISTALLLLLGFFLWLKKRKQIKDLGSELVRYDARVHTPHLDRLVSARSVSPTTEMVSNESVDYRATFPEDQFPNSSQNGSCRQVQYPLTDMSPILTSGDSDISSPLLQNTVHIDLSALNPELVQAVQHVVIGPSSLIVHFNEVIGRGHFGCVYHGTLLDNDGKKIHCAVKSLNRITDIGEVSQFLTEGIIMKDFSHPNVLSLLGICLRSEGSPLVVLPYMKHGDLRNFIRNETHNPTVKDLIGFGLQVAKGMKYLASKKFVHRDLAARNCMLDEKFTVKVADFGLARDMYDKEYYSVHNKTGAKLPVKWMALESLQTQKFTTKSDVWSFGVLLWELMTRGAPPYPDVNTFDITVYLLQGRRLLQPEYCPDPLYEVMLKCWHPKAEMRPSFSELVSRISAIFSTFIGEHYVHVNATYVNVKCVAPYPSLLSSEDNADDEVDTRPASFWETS
# [3] = molecular target: T1, native mouse MET on living cells; test: flow cytometry, MLP29 cells
# Protocol: (§1) We also analysed whether chimeric anti-MET antibodies bound to native human and mouse MET in living cells. […] Antibody binding to cells was analysed by flow cytometry using phycoerythrin-conjugated anti-human IgG1 antibodies (eBioscience) and a CyAn ADP analyser (Beckman Coulter). As a positive control for human MET binding, we used a commercial mouse anti-human MET antibody (R&D Systems) and phycoerythrin-conjugated anti-mouse IgG1 antibodies (eBioscience).
# (§2) As a positive control for mouse MET binding we used a commercial goat anti-mouse MET antibody (R&D Systems) and phycoerythrin-conjugated anti-goat IgG1 antibodies (eBioscience). […] Consistent with the data obtained in ELISA, maximal binding (EMAX) varied depending on antibody, but was similar in human and mouse cells.
# [4] = molecular target: T3, mouse MET ECD (mouse, UniProt P16056 25-931); test: ELISA, MET ECD in solid phase, mAb 0-20 nM
# T3 construct: range 1-931; recombinant ECD made by the applicants; the stated range begins at residue 1; also called mMET; mMET ECD
# Protocol: (§3) Production (by transient transfection of mammalian cells) and purification (by protein A affinity chromatography) of the resulting chimeric llama-human IgG1 molecules was outsourced to U-protein Express. Binding of chimeric mAbs to MET was determined by ELISA using hMET or mMET ECD in solid phase and increasing concentrations of antibodies (0-20 nM) in solution. […] Binding capacity (EMAX) varied from antibody to antibody, possibly due to partial epitope exposure in the immobilized antigen, but was similar in the human and mouse setting.
# [5] = molecular target: T4, human MET ECD (human, UniProt P08581 25-932); test: ELISA, MET ECD in solid phase, mAb 0-20 nM
# T4 construct: range 1-932; recombinant ECD made by the applicants; the stated range begins at residue 1, so it includes the signal peptide of the entry; also called hMET; hMET ECD
# T4 sequence (P08581 25-932 limits assumed, form in doubt): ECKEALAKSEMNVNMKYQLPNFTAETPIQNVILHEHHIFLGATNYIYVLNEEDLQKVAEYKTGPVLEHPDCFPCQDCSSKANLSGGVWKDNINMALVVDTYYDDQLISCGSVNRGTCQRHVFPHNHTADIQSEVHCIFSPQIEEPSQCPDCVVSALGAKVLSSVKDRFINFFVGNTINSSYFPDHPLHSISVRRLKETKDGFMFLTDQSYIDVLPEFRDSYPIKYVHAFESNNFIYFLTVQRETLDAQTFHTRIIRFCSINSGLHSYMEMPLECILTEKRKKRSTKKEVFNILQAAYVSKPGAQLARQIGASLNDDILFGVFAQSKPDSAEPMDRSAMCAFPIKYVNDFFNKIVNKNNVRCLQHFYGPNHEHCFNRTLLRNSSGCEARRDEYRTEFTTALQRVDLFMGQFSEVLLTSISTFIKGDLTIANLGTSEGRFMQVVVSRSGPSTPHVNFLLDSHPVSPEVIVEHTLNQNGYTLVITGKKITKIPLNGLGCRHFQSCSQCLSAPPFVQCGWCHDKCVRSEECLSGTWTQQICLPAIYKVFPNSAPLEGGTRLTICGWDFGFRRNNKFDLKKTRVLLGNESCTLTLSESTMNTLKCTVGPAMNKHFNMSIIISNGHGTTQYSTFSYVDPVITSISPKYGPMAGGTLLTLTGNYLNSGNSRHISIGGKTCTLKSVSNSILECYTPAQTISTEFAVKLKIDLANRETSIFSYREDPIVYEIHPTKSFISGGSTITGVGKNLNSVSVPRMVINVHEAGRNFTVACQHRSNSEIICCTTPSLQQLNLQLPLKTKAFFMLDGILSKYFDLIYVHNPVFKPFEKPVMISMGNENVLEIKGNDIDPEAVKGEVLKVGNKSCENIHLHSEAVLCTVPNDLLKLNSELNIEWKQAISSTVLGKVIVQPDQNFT
# Protocol: as §3
# [6] = molecular target: T2, native human MET on living cells; test: flow cytometry, A549 cells
# Protocol: as §1, §2
# [7] = molecular target: T5, mouse MET-Fc (R&D Systems) (mouse, UniProt P16056 25-929, limits assumed); test: competition ELISA, mMET-Fc in solid phase, competitor 0.3 nM biotinylated mHGF
# T5 construct: bought chimeric protein; also called mMET; not shown: Fc part
# Protocol: (§4) To investigate along this line, we tested the competition between mAbs and HGF by ELISA. Recombinant human and mouse HGF (R&D Systems) were biotinylated at the N-terminus using NHS-LC-biotin (Thermo Scientific). MET-Fc protein, either human or mouse (R&D Systems), was immobilized in solid phase and then exposed to 0.3 nM biotinylated HGF, either human or mouse, in the presence of increasing concentrations of antibodies (0-120 nM).
# (§5) A MET-Fc chimeric protein (either human or mouse) was immobilized in solid phase and exposed to a fixed concentration of biotinylated HGF (either human or mouse), in the presence of increasing concentrations of antibodies. […] Antibody-HGF competition is expressed as IC₅₀ (the concentration that achieves 50% competition) and IMAX (the maximum % competition reached at saturation).
# [8] = molecular target: T1, native mouse MET on living cells; test: cell-based or functional assay; remark: listed apart in the source
# [9] = molecular target: T2, native human MET on living cells; test: cell-based or functional assay; remark: listed apart in the source
# [10] = molecular target: T1, native mouse MET on living cells; test: cell-based or functional assay; remark: listed apart in the source
# [11] = molecular target: T2, native human MET on living cells; test: cell-based or functional assay; remark: listed apart in the source
# [12] = molecular target: T6, human MET-Fc (R&D Systems) (human, UniProt P08581 25-932); test: competition ELISA, hMET-Fc in solid phase, competitor 0.3 nM biotinylated hHGF
# T6 construct: extracellular domain; bought chimeric protein; also called hMET; not shown: Fc portion of human IgG1
# T6 sequence (P08581 25-932): as the sequence (P08581 25-932 limits assumed, form in doubt) above
# Protocol: as §4, §5
# [13] = molecular target: T1, native mouse MET on living cells; test: cell-based or functional assay; remark: listed apart in the source
# [14] = molecular target: T2, native human MET on living cells; test: cell-based or functional assay; remark: listed apart in the source
# [15] = molecular target: T3, mouse MET ECD; test: ELISA, MET ECD in solid phase, crude periplasmic Fab
# Protocol: (§6) Fab-expressing phages from the libraries described above were produced according to standard phage display protocols. For selection, phages were first adsorbed to immobilized recombinant human MET ECD, washed, and then eluted using trypsin. After two cycles of selection with human MET ECD, two other cycles were performed in the same fashion using mouse MET ECD. In parallel, we also selected phages alternating a human MET ECD cycle with a mouse MET ECD cycle, for a total of four cycles. Phages selected by the two approaches were pooled together and then used to infect TG1 E. coli. Individual colonies were isolated and secretion of Fabs was induced using IPTG (Fermentas). The Fab-containing periplasmic fraction of bacteria was collected and tested for its ability to bind human and mouse MET ECD by Surface Plasmon Resonance (SPR). Human or mouse MET ECD was immobilized on a CM-5 chip using amine coupling in sodium acetate buffer (GE Healthcare). The Fab-containing periplasmic extracts were loaded into a BIACORE 3000 apparatus (GE Healthcare) with a flow rate of 30 μl/min. The Fab off-rates (koff) were measured over a two minute period. Binding of Fabs to human and mouse MET was further characterized by ELISA using MET ECD in solid phase and periplasmic crude extract in solution.
# (§7) TABLE 7 Fabs binding to both human MET (hMET) and mouse MET (mMET). Fabs are grouped in families based on their VH CDR3 sequence. Binding of Fabs to human and mouse MET ECD was determined by Surface Plasmon Resonance (SPR) and by ELISA. SPR values represent the koff (s⁻¹). ELISA values represent the Optical Density (OD) at 450 nm (AU, arbitrary units). Both SPR and ELISA were performed using crude periplasmic extracts. Fab concentration in the extract was not determined. Values are the mean of three independent measurements.
# [16] = molecular target: T4, human MET ECD; test: as above
# Protocol: as §6, §7
# [17] = molecular target: T3, mouse MET ECD; test: SPR, MET ECD on chip, crude periplasmic Fab
# Protocol: as §6, §7
# [18] = molecular target: T4, human MET ECD; test: SPR, MET ECD on chip, crude periplasmic Fab
# Protocol: as §6, §7
binder,measurement,setting,value
B1,"phospho-MET ELISA EC50, MLP29 cells",[1],0.41 nM
same,"phospho-MET ELISA EMAX (% HGF activity), MLP29 cells",[1],102%
same,"phospho-MET ELISA EC50, A549 cells",[2],0.52 nM
same,"phospho-MET ELISA EMAX (% HGF activity), A549 cells",[2],87.6%
same,EC50,[3],0.208 nM
same,EMAX,[3],73.8 % relative to control
same,EC50,[4],0.116 nM
same,EMAX (OD450),[4],0.896 AU
same,EC50,[5],0.09 nM
same,EMAX (OD450),[5],0.994 AU
same,EC50,[6],0.235 nM
same,EMAX,[6],85.7 % relative to control
same,IC50,[7],0.49 nM
same,IMAX,[7],71.5%
same,"branches per spheroid, MLP29 cells, 0.5 nM",[8],17.3 branches
same,"branches per spheroid, MLP29 cells, 2.5 nM",[8],15.3 branches
same,"branches per spheroid, MLP29 cells, 12.5 nM",[8],22.3 branches
same,"branches per spheroid, LOC cells, 0.5 nM",[9],10.3 branches
same,"branches per spheroid, LOC cells, 2.5 nM",[9],17 branches
same,"branches per spheroid, LOC cells, 12.5 nM",[9],18.7 branches
same,"protection from staurosporine, viability EC50, MLP29 cells",[10],> 32 nM
same,"protection from staurosporine, viability EMAX, MLP29 cells",[10],37.5%
same,"protection from staurosporine, viability EC50, MCF10A cells",[11],> 32 nM
same,"protection from staurosporine, viability EMAX, MCF10A cells",[11],41.7%
same,IC50,[12],0.43 nM
same,IMAX,[12],76.9%
same,"scatter score 0-4, MLP29, 0.001 nM",[13],0 score
same,"scatter score 0-4, MLP29, 0.004 nM",[13],0 score
same,"scatter score 0-4, MLP29, 0.012 nM",[13],0 score
same,"scatter score 0-4, MLP29, 0.037 nM",[13],1 score
same,"scatter score 0-4, MLP29, 0.111 nM",[13],2 score
same,"scatter score 0-4, MLP29, 0.333 nM",[13],3 score
same,"scatter score 0-4, MLP29, 1.000 nM",[13],3 score
same,"scatter score 0-4, MLP29, 3.000 nM",[13],4 score
same,"scatter score 0-4, MLP29, 9.000 nM",[13],4 score
same,"scatter score 0-4, HPAF-II, 0.001 nM",[14],0 score
same,"scatter score 0-4, HPAF-II, 0.004 nM",[14],0 score
same,"scatter score 0-4, HPAF-II, 0.012 nM",[14],0 score
same,"scatter score 0-4, HPAF-II, 0.037 nM",[14],1 score
same,"scatter score 0-4, HPAF-II, 0.111 nM",[14],2 score
same,"scatter score 0-4, HPAF-II, 0.333 nM",[14],3 score
same,"scatter score 0-4, HPAF-II, 1.000 nM",[14],3 score
same,"scatter score 0-4, HPAF-II, 3.000 nM",[14],4 score
same,"scatter score 0-4, HPAF-II, 9.000 nM",[14],4 score
B2,OD450,[15],3.7 AU
same,OD450,[16],3.7 AU
same,koff,[17],0.00544 s⁻¹
same,koff,[18],0.00568 s⁻¹
